Results taken from patent US20240254200A1 (APITBIO, published 2024).

B1: AbS0 antibody (AbS0 Fab converted into human IgG1) (antibody, V domains shown)
VH: EVQLVESGGGLVQPGGSLRLSCAASGFTFSTYAMSWVRQAPGKGLEWVSSISQSGGYTNYADSVKGRFTISRDNSKNTLYLQMNSLRAEDTAVYYCAKVIYASLDYWGQGTLVTVSS
VL: DIQMTQSPSSLSASVGDRVTITCRASQSIASYLNWYQQKPGKAPKLLIYATSRLQSGVPSRFSGSGSGTDFTLTISSLQPEDFATYYCQQSYSSPYTFGQGTKVEIK
notes: also called AbS0 mAb; wild type AbS0
B2: AbS0 Fab phage (Fab, V domains shown)
VH: EVQLVESGGGLVQPGGSLRLSCAASGFTFSTYAMSWVRQAPGKGLEWVSSISQSGGYTNYADSVKGRFTISRDNSKNTLYLQMNSLRAEDTAVYYCAKVIYASLDYWGQGTLVTVSS
VL: DIQMTQSPSSLSASVGDRVTITCRASQSIASYLNWYQQKPGKAPKLLIYATSRLQSGVPSRFSGSGSGTDFTLTISSLQPEDFATYYCQQSYSSPYTFGQGTKVEIK

Tests used:
[1] = molecular target: T1, L1CAM on the human ovarian cancer cell line SKOV3 (human, UniProt P32004 20-1257); test: flow cytometry on SKOV3 cells, anti-human IgG Fc-FITC
T1 construct: whole, on cells; The cells express L1CAM but not preS1; also called SKOV3 cells
T1 sequence (P32004 20-1257): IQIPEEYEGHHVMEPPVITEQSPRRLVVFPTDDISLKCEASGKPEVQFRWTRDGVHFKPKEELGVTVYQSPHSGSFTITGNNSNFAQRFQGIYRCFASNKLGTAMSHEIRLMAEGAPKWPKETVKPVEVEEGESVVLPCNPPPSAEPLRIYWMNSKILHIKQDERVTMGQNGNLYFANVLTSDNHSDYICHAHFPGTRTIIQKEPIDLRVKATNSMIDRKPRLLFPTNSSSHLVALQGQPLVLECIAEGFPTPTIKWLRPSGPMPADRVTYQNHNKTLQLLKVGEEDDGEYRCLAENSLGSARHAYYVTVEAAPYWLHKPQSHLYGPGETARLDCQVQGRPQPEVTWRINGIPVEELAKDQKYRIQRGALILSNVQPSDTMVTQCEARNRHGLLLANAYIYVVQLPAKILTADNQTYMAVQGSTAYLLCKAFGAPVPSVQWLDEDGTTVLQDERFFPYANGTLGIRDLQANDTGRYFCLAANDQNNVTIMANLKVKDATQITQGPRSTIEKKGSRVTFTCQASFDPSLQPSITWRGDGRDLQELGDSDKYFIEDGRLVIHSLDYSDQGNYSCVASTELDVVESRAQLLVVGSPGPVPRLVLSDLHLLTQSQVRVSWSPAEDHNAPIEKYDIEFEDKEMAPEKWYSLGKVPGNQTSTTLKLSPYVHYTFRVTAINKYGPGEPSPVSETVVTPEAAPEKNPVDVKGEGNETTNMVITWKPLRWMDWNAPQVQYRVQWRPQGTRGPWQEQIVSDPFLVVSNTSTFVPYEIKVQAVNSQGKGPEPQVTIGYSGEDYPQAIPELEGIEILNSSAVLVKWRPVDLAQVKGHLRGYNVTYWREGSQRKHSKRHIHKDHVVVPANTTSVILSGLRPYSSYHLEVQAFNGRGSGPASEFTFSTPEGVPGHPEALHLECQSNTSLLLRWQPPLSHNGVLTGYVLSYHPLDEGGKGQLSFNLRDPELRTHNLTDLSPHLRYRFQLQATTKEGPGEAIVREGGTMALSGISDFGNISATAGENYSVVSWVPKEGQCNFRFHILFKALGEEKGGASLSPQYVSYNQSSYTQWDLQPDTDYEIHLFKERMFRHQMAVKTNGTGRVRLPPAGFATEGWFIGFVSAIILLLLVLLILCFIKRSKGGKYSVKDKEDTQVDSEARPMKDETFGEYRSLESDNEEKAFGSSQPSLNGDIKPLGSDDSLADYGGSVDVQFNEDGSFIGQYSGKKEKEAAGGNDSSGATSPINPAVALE

[2] = molecular target: T2, GST-preS1(1-56)-strep of HBV genotype A (hepatitis B virus genotype A, UniProt P08515 1-218 = GST); test: indirect ELISA, GST-preS1(1-56)-strep coated, serially diluted AbS0, anti-human IgG Fc-HRP
T2 construct: Expressed in E. coli; also called recombinant preS1 of HBV genotype A; preS1 antigen of genotype A; not shown: strep tag
T2 sequence (P08515 whole entry): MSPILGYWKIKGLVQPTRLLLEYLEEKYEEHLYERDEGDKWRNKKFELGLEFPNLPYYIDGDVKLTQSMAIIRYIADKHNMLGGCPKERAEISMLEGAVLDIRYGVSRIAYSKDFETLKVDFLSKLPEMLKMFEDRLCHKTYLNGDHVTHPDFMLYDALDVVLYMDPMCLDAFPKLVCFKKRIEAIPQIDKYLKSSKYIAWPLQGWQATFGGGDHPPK

[3] = molecular target: T3, GST-preS1(1-56)-strep of HBV genotype B (hepatitis B virus genotype B, UniProt P08515 1-218 = GST); test: as above
T3 construct: Expressed in E. coli; also called recombinant preS1 of genotype B; not shown: strep tag
T3 sequence (P08515 whole entry): as above

[4] = molecular target: T4, GST-preS1(1-56)-strep of HBV genotype C (hepatitis B virus genotype C, UniProt P08515 1-218 = GST); test: as above
T4 construct: Expressed in E. coli; also called wild type preS1 antigen; recombinant preS1 of genotype C; not shown: strep tag
T4 sequence (P08515 whole entry): as above

[5] = molecular target: T5, GST-preS1(1-56)-strep of HBV genotype D (hepatitis B virus genotype D, UniProt P08515 1-218 = GST); test: as above
T5 construct: Expressed in E. coli; also called recombinant preS1 of genotype D; not shown: strep tag
T5 sequence (P08515 whole entry): as above

[6] = molecular target: T2, GST-preS1(1-56)-strep of HBV genotype A; test: indirect ELISA, genotype A GST-preS1(1-56)-strep (NPLGFFP) coated, serially diluted antibody
[7] = molecular target: T4, GST-preS1(1-56)-strep of HBV genotype C; test: indirect ELISA, genotype C GST-preS1(1-56)-strep coated (100 ng), antibody from culture supernatant, anti-human IgG Fc-HRP
[8] = molecular target: T2, GST-preS1(1-56)-strep of HBV genotype A; test: BLI (Octet RED384), antibody captured on anti-human Fc tips, antigen 25-1.5625 nM in solution, 1:1 model
[9] = molecular target: T6, BSA (Bos taurus, UniProt P02769); test: indirect ELISA of monoclonal Fab phage on coated antigen, anti-M13-HRP
T6 construct: control antigen of the phage ELISA; also called bovine serum albumin
T6 sequence (P02769 25-607 limits assumed): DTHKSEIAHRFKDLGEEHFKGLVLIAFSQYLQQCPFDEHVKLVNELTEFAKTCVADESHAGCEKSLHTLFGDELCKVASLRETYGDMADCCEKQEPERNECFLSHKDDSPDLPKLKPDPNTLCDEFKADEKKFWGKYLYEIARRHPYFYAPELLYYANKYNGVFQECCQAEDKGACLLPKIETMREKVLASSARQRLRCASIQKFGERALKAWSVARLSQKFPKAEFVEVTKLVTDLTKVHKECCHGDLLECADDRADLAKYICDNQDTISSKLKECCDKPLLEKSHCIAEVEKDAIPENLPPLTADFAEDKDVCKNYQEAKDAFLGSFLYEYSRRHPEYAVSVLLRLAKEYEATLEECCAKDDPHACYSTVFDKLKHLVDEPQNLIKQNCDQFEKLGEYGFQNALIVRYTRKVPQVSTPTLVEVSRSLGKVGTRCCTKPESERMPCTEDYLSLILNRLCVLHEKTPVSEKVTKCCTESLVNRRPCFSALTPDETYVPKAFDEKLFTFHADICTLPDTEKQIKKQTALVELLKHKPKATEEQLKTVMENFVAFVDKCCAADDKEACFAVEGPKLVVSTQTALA

Row | Binder | binding result [1] | EC50 (read off the curve) [2] [µg/mL] | EC50 (read off the curve) [3] [µg/mL] | EC50 (read off the curve) [4] [µg/mL] | EC50 (read off the curve) [5] [µg/mL] | EC50 (read off the curve) [6] [µg/mL] | EC50 (read off the curve) [7] [µg/mL] | Kd [8] [nM] | koff [8] [s⁻¹] | kon [8] [M⁻¹ s⁻¹] | binding result [9]
1 | B1 | no binding | ~0.04 | ~0.04 | ~0.04 | ~0.04 | ~0.06 | ~0.003 | 0.5 | 0.000194 | 392000 | 
2 | B2 |  |  |  |  |  |  |  |  |  |  | no binding
